Among the data in ChEMBL document CHEMBL1649220, “New variant of CTX-M-type extended-spectrum beta-lactamases, CTX-M-71, with a Gly238Cys substitution in a Klebsiella pneumoniae isolate from Bulgaria” (2009) are Km and kcat values, retold here.

Some results are limits rather than exact numbers.

Substrate in series [1]: CC1(C)S[C@@H]2[C@H](NC(=O)Cc3ccccc3)C(=O)N2[C@H]1C(=O)O
Briefly: (§1) Activity of Klebsiella pneumoniae AH27 CTX-M-15 beta-lactamase.

Substrate in series [2]: C[C@@H](O)[C@H]1C(=O)N2C(C(=O)O)=C(S[C@@H]3CN[C@H](C(=O)N(C)C)C3)[C@H](C)[C@H]12
The description is as §1.

Substrate in series [3]: CO/N=C(\C(=O)N[C@@H]1C(=O)N2C(C(=O)O)=C(COC(C)=O)CS[C@H]12)c1csc(N)n1
Described as §1.

Substrate in series [4]: C[C@@H](O)[C@H]1C(=O)N2C(C(=O)O)=C(SCCNC=N)C[C@H]12
Described as §1.

Substrate in series [5]: O=C(Cc1cccs1)N[C@@H]1C(=O)N2C(C(=O)[O-])=C(C[n+]3ccccc3)CS[C@H]12
Described as §1.

Substrate in series [6]: CO/N=C(\C(=O)N[C@@H]1C(=O)N2C(C(=O)O)=C(COC(N)=O)CS[C@H]12)c1ccco1
The series is described as §1.

Substrate in series [7]: CC(C)(O/N=C(\C(=O)N[C@@H]1C(=O)N2C(C(=O)[O-])=C(C[n+]3ccccc3)CS[C@H]12)c1csc(N)n1)C(=O)O
The series is described as §1.

Substrate in series [8]: C[C@@H](O)[C@H]1C(=O)N2C(C(=O)O)=C(S[C@@H]3CN[C@H](CNS(N)(=O)=O)C3)[C@H](C)[C@H]12
Described as §1.

Substrate in series [9]: C[C@H]1[C@H](NC(=O)/C(=N\OC(C)(C)C(=O)O)c2csc(N)n2)C(=O)N1S(=O)(=O)O
The experiment in a line: (§2) Activity of Klebsiella pneumoniae AH24-270 CTX-M-71 beta-lactamase.

Substrate in series [10]: CC1(C)S[C@@H]2[C@H](NC(=O)Cc3ccccc3)C(=O)N2[C@H]1C(=O)O
The series is described as §2.

Substrate in series [11]: C[C@@H](O)[C@H]1C(=O)N2C(C(=O)O)=C(S[C@@H]3CN[C@H](C(=O)N(C)C)C3)[C@H](C)[C@H]12
Described as §2.

Substrate in series [12]: CO/N=C(\C(=O)N[C@@H]1C(=O)N2C(C(=O)O)=C(COC(C)=O)CS[C@H]12)c1csc(N)n1
Described as §2.

Substrate in series [13]: C[C@@H](O)[C@H]1C(=O)N2C(C(=O)O)=C([C@H]3CCCO3)S[C@H]12
Described as §2.

Substrate in series [14]: C[C@@H](O)[C@H]1C(=O)N2C(C(=O)O)=C(SCCNC=N)C[C@H]12
Described as §2.

Substrate in series [15]: O=C(Cc1cccs1)N[C@@H]1C(=O)N2C(C(=O)[O-])=C(C[n+]3ccccc3)CS[C@H]12
The series is described as §2.

Substrate in series [16]: CC1(C)S[C@@H]2[C@H](NC(=O)[C@H](N)c3ccc(O)cc3)C(=O)N2[C@H]1C(=O)O
The description is as §2.

Substrate in series [17]: CCN1CCN(C(=O)N[C@@H](C(=O)N[C@@H]2C(=O)N3[C@@H]2SC(C)(C)[C@@H]3C(=O)O)c2ccccc2)C(=O)C1=O
The description is as §2.

Substrate in series [18]: CO/N=C(\C(=O)N[C@@H]1C(=O)N2C(C(=O)O)=C(COC(N)=O)CS[C@H]12)c1ccco1
Described as §2.

Substrate in series [19]: CC(C)(O/N=C(\C(=O)N[C@@H]1C(=O)N2C(C(=O)[O-])=C(C[n+]3ccccc3)CS[C@H]12)c1csc(N)n1)C(=O)O
The series is described as §2.

Substrate in series [20]: C[C@@H](O)[C@H]1C(=O)N2C(C(=O)O)=C(S[C@@H]3CN[C@H](CNS(N)(=O)=O)C3)[C@H](C)[C@H]12
Described as §2.

B1: Beta-lactamase AH27 CTX-M-15 (Klebsiella pneumoniae), Q2PUH3 (protein)
chain: MVKKSLRQFTLMATATVTLLLGSVPLYAQTADVQQKLAELERQSGGRLGVALINTADNSQILYRADERFAMCSTSKVMAAAAVLKKSESEPNLLNQRVEIKKSDLVNYNPIAEKHVNGTMSLAELSAAALQYSDNVAMNKLIAHVGGPASVTAFARQLGDETFRLDRTEPTLNTAIPGDPRDTTSPRAMAQTLRNLTLGKALGDSQRAQLVTWMKGNTTGAASIQAGLPASWVVGDKTGSGGYGTTNDIAVIWPKDRAPLILVTYFTQPQPKAESRRDVLASAAKIVTDGL
On to B1, for which the Km – broadly, the concentration of substrate that gives half-maximal velocity – in series [1] came to 8.7 µM; in [3], 26 µM; in [5] it was 39 µM; in series [6], 180 µM; in [7] it was 236 µM. The kcat (as a rule, the maximal rate divided by the concentration of active sites) is 47 s⁻¹ in series [1]; below 0.004 s⁻¹ in [2]; 176 s⁻¹ in series [3]; below 0.17 s⁻¹ in series [4]; 188 s⁻¹ in series [5]; 45 s⁻¹ in series [6]. The kcat in [7] was 4.4 s⁻¹; in series [8], below 0.002 s⁻¹.

B2: Extended spectrum beta-lactamase CTX-M-71 (Klebsiella pneumoniae), C8YUV9 (protein)
chain: MVKKSLRQFTLMATATVTLLLGSVPLYAQTADVQQKLAELERQSGGRLGVALINTADNSQILYRADERFAMCSTSKVMAAAAVLKKSESEPNLLNQRVEIKKSDLVNYNPIAEKHVNGTMSLAELSAAALQYSDNVAMNKLIAHVGGPASVTAFARQLGDETFRLDRTEPTLNTAIPGDPRDTTSPRAMAQTLRNLTLGKALGDSQRAQLVTWMKGNTTGAASIQAGLPASWVVGDKTGSCGYGTTNDIAVIWPKDRAPLILVTYFTQPQPKAESRRDVLASAAKIVTDGL
Regarding B2, the Km in series [9] amounted to 10 µM; in series [10] it was 4.9 µM; in [12] it was 130 µM; in series [15], 18 µM; in series [16], 5.2 µM; in series [17], 3.2 µM. In addition, the Michaelis-Menten constant (Km) in [18] came out at 85 µM; in series [19], 180 µM. For the same protein, the kcat is 0.84 s⁻¹ in [9]; 58 s⁻¹ in series [10]; below 0.07 s⁻¹ in series [11]; 65 s⁻¹ in series [12]; below 0.46 s⁻¹ in series [13]; below 0.07 s⁻¹ in series [14]. For the same protein, the kcat in series [15] was 68 s⁻¹; in series [16] it was 49 s⁻¹; in series [17] it was 27 s⁻¹; in [18] it was 8.8 s⁻¹; in series [19], 0.69 s⁻¹; in [20], below 0.05 s⁻¹.
